{
  "source": "the DeepSol protein solubility set",
  "data": [
    {"assay": "soluble on expression in E. coli; label from the status in PepcDB or PDB records", "values": [
      {"sequence": "MSLGLKIEEARVIVCCPGRNFVTLKIITNEGIYGLGDATLNGRELSVVSYLEDHVIPCLIGRDPHQIEDIWQFLYRGAYWRRGPITMSAIAAVDTALWDIKAKAAGLPLYQMLGGKSRTGVMVYGHANGRDIEETVEEVGRYIEIGYQAVRAQCGIPGLPSTYGVSNDKMFYEPADADLPSENIWSTSRYLDHVPKLFEKLRQVHGWDVHLLHDVHHRLTPIEAARLGQSLEPMRLFWLEDIVPAENQEGFRIIRNHTTTPLAVGEVFNTIWDCKNLIEEQLFDYIRSTVVHAGGITHLRRIADLAGLYHVKTGCHGATDLSPVCMGAALNFDLWVPNFGIQEYMRHAEITNEVFPHHYNFSNGFLHPGESPGHGVDLDEKLAAKYPYQRAYLPVNRLEDGTMWNWEGHHHHHH", "soluble on expression in E. coli": "not soluble"},
      {"sequence": "MSLGLNILKTLRSHRVSEGVSNSDTHYELTSALIKSLRGSDIDASIYYLARLIQGGEEPAFLARRMVIFASEDIGNANPNALNLATNVMLAVSKIGYPEARIILAQCAVYLASSPKSNSSYKAINDAIEFVENRPALPVPKYLINTDKAKSEYLYPHDFGGWVEQKYMSTQVKFYKSNAIGFEKTLDEWITKLKESYNEKEGHHHHHH", "soluble on expression in E. coli": "soluble"},
      {"sequence": "MSLGNAFIALDFETANGKRTSICSVGMVKVVNNEIVESFYTLVNPFDYFSQTNIEVHGITPEDVIDAPSFEYVFPYMMQFIDKLPVVAHNAAFDMNVLHQSLKQLNIETPSMIYFCSYQLAKRTIDAYRYGLKHLMKHYKLDFHGHHDALNDAKACAMITFRLLKHYDNLQSMLQIYGKNLKEGHHHHHH", "soluble on expression in E. coli": "not soluble"},
      {"sequence": "MSLGNDRWRAEFPLERIGTYEFRVEAWRDVFATLHADLEKKRAANTVLPVDVQEAVAAVQAAQARSDGALAERLQTVLTRIGAQSEPLQQLAIVLEPDTAQAMALADDKPFRSEYPVTFRVESERRAAHFSSWYELFPRSQSGDASRHGTFDDVIKRLPHIRAMNFDVLYMPPIHPIGLNNRKGRNNSVTAVEGEPGSPYAIGATDGGHTEVHAELGGLEGFRRLIEAARAQGLEVALDFAIQCAPDHPWLKEHKDWFTWRADGSIPYAENPPKKYQDIVNVDFYASGAVPDLWNTLRDAVLFWVNEGVTLFRVDNPHTKPFPFWEWLIADVRGRRPDVVFLSEAFTRPKMMYRLAKCGFSQSYTYFTWRNHKHELQAYVEELNDGVPRECFRPHFFVNTPDINPLFLQTSGRNGHLIRAALATTLSGLWGMYQGFELCEATPLAPGKEEYLDSEKFQLRAWPERVPGDIVEEITRFNQLRRMHPELQSHLGTRFYQAHNDQVLYYGKFLDAGYLSRSRSMVLVAINLDPHAGQDADIEIPLWELGLPDHASVAVEDLWDGHRFAWHGKYQHIRLEATRPFALWRIRAGEGHHHHHH", "soluble on expression in E. coli": "not soluble"},
      {"sequence": "MSLGNSFRQGANAYFDYVNTQGGIYGRALELLTYDDKYEPKLTESNVRHLIDKEGVFALMGTIGTPTAMAAIPVALEEQIPFLMPLSGARFLREPFNRLIFNLRPSYFEEIEAISSYLTEERGFKRIAIFYQNDSFGIEGLEGLTQSLDKRGLKIVAEGIYPRNTLSVSDAVYAIHPKSPEAIVMVGTYEASALFIQRYKELNPASPPLFVNISFVAATALAEALQGNMRQVLVSNVTPSPWDISNPLVREYHRLYVESMGHPPCFLSFEGFLSAKIIVEALHKTGPILSHKRFIKAMENLSPDFLSDLKLRFSATNHQAFEQVFITGYENGRFVTLKSYEGHHHHHH", "soluble on expression in E. coli": "not soluble"},
      {"sequence": "MSLGQDEALEKALDMIRNADRIVIGGGAGLSACGGLNYMSLEVLKKEFPALARRGYHTLWEALWDDRRTKQQKIGMMAAEVLWACYDFPVIRAYQDLLRMVEDKDYFVLTSNIDRQFHKAGFEEERIFEPQCSASDLQCQTPCCRDIWDGESVWRKIAANMDRETYACREEDIPRCDRCHAPAVQNMRGIKSFIPDKVMWNRIEFEQYIKEASDLRTVFLELGAGFNSPGVIRHPFQRLAYRYPKAALIRMNQEFPKVPEKIKDRSVEIAGDIGEALAQMRRLYEREGHHHHHH", "soluble on expression in E. coli": "soluble"},
      {"sequence": "MSLGRYCTDTEWTWFIPGKSPIKTDTIFREVAINGKTGLRTCHIDENTRFEVYEFWPSDLLRIFRRAGIQRHTPPFFEPGCALSGNSGISPQITSPQAGVSYIVHANTQSNKIIPLTAVTDAGIAHLYWFINESFVAETKSDEPYLWQAKPGKYVVRVVDDRGLSDARDITIQMVSEGHHHHHH", "soluble on expression in E. coli": "soluble"},
      {"sequence": "MSLGSEGTSAKISISAIQVNANNPIEDRLLIQRMRLNLPGGENKDFVISAVIDGHGGWQVAEYVQNNFIRIFQKELSQYMSSLVREGSANESNPISQINETDIIAGLFYSLKKTYYILDEELKSKLEVAYNLGFSKLASVGACTTVSIITEDAILTANSGDCLSVYCNENGIWLPLNEQLSAMNPQEQKRLEEIHKHEKDNLIQCKQILHEKFLMGLYTIPKYRGCYVKGILQPSRAIGDFRLKSMDFNYNWEKDLSTEKLLPTFSYVLKDKESEQSKKEQHRENEDLNEDEFPYSYDLINGNNSINMRRDSYRYFVKNPLSFPYVRSEPMLHLFFYNSLNKNLSSTDNTSVEKISPNEYSEGHHHHHH", "soluble on expression in E. coli": "soluble"},
      {"sequence": "MSLGSGVAEPEFPVHGDDRAAAFFDLDNTVMQGAAIFHFGRGLYKRKFFETRDLARFAWQQAWFRLAGFEDPEHMQDARDSALSIVKGHRVSELKSIGEEIYDEYMAERIWPGTRALAQAHLDAGQKVWLVTAAPVEIAQVIARRLGLTGALGTVAESIGGVYTGKLVGEPLHGPAKAEAVRALATAEALDLSRCAAYGDSHNDIPMLSLVGHPYAINPDSKLRKHARELEWRLRDYRTGRKAAKEGHHHHHH", "soluble on expression in E. coli": "soluble"},
      {"sequence": "MSLGSMGPAQFVGRQTLATTPMGDVEIGLQERNGQLEVDIIQARGLTAKPGSKTLPAAYIKAYLLENGICIAKKKTKVARKSLDPLYNQVLLFPESPQGKVLQVIVWGNYGRMERKQFMGVARVLLEELDLTTLAVGWYKLFPTSSMVDPATGPLLRQASQLSLESTVGPCGERSEGHHHHHH", "soluble on expression in E. coli": "soluble"},
      {"sequence": "MSLGTIIIVDDNKGVLTAVQLLLKNHFSKVITLSSPVSLSTVLREENPEVVLLDMNFTSGINNGNEGLFWLHEIKRQYRDLPVVLFTAYADIDLAVRGIKEGASDFVVKPWDNQKLLETLLNAASQAKDGKKKNRKKESSPVSAMYWGESSAMQQLRTLIEKVATTNANILITGENGTGKEMLAREIHALSPRSAESMISVDMGAITESLFESELFGHVKGSFTDAHADRTGKFEAADRSSLFLDEIGNLPFHLQAKLLTAIQQRSIVRVGSNQSIPVDIRLICATNRNLQEMVDKGLFREDLLYRINTIHVEIPPLRKRKEDIVPLAERFIARFCKQYDKASISLSPAACEKLTAHAWYGNIRELEHSIEKAVIISDGETIPAEMFQLVQKTENPETETSTLEDMEKAMIRKALDKCGGNLSAVAAQLGITRQTLYNKMKKFGLEGHHHHHH", "soluble on expression in E. coli": "soluble"},
      {"sequence": "MSLGTILHSELEKFYDPNLIVGNETADDAAVYDLGNGTAIISTTDFFMPIVDDPFDFGRIAATNAISDIFAMGGKPIMGIAILGFPTNVLPAEVAQKIVDGGRFACHQAGIALAGGHSIDSPEPIFGLAVTGVIDTEKVKRNASAKSGCKLYMTKPLGIGILTTAEKKGKLKPEHQGLATAAMCQMNSIGSQFSQVDGVTAMTDVTGFGLLGHLIEICEGSNLSAVVFSDKIKTLDGVKDYIAQGCVPGGTGRNFDSYGHKVGILTEEQKAILCDPQTSGGLLVAVELNSVQTVIDIAKDAGIDLYEVGKLKPKSESDIVVEVKEGHHHHHH", "soluble on expression in E. coli": "soluble"},
      {"sequence": "MSLGVNFQPVAFTGRIDQSQREKKRITIPDVMKLVEEQTGGEIPCNAWYPVSFVVPISRFLSAMRNIPIPELTAHPHCGAGTYVFYEEGHFIPITNFFDVESFIELLKEITPEINGRVSRVLSLAKVIKQVPKFIDEKKGPKSVNTTRMILDLLKKGDMENTSRFHRNTLFLGTMHFQDLYNIDLERVKKCGVHYATPDGRIIPFCTYNEGHHHHHH", "soluble on expression in E. coli": "not soluble"},
      {"sequence": "MSLGYLEAAPYGINAPFAWEVQGGKGSGITFVDMEYGWLLNHEDLVHQNIELMSGINIDQHVGHGTSVLGIVSSEDNEVGNIGIAPKAKAKVISQIRDNGQYNTADAILSAVNQLEAGDVLLLEAQASFDGYGDKYLPVEVQPDIFDAIRAGTDKGVVIIEAGANGWNDLDQFKDRNGKQILNRNSKDFKDSGAIMVGAGSSSFPHERMWFSNYGSRIDVYGWGENVDTTTAEQSRSAVNLYTSSFSGTSSASPIIAGAATLVQSIAKENLGQPYRPSELRAILSNENTGTKSKDPYADQIGVLPDLKSILVNLGYGQRKPNGGNELQVTENEPNNERIQANKVNFHTPMKGTLHNSDRVDVFTFQMDSPENITISLLNEQNIGMTWVLHHESDLNNYVAYGENEGNVVKGTYHAKPGKYYLYVYKYENKDGSYVLNIKEGHHHHHH", "soluble on expression in E. coli": "soluble"}
    ]}
  ]
}
